Measured values from PMC10073072.

T1: SLC39A5^369–380 peptide, Q6ZMH5
T1 chain: GHQGHSHGHQGGY


What was measured:
[1] = biological target: T1, SLC39A5^369–380 peptide, Q6ZMH5; test: ITC; conditions: chain shown with the change;; parent: 9.0 µM
METTL9^M6 R214A (human) = METTL9^M6 R214A (human) (UniProt Q9H1A3); test: ITC; METTL9 protein and synthetic peptide; conditions and who was titrated not shown

Kd [1] [µM]	fold weaker binding affinity than METTL9^M6 (METTL9^M6 R214A (human)) [fold]	Binder
51		METTL9^M6 (METTL9^46–318 with six mutations), Q9H1A3 R214A (protein) HMAAGGRKENHQWYVCNREKLCESLQAVFVQSYLDQGTQIFLNNSIEKSGWAAIQAYHSAVSSAFSLAMSRTSINGLLGRGSMFVFSPDQFQRLLKINPDWKTHRLLDLGAGDGEVTKIMSPHFEEIYATELSETMIWQLQKKKYRVLGINEWQNTGFQYDVISCLNLLDACDQPLTLLKDIRSVLEPTRGRVILALVLPFHPYVENVGGKWEKPSEILEIKGQNWEEQVNSLPEVFRKAGFVIEAFTRLPYLCEGDMYNDYYVLDDAVFVLKPV
	5	GHQGHSHGHQGGY [SLC39A5^369–380 peptide]
